Assay results: patent US6344321

Target: HGF (hepatocyte growth factor/scatter factor) (UniProt P14210+P14210)
Assay: filter
Details: 2'-F pyrimidines

Chain of HGF (hepatocyte growth factor/scatter factor) (P14210 32-494, chain 1 of 2): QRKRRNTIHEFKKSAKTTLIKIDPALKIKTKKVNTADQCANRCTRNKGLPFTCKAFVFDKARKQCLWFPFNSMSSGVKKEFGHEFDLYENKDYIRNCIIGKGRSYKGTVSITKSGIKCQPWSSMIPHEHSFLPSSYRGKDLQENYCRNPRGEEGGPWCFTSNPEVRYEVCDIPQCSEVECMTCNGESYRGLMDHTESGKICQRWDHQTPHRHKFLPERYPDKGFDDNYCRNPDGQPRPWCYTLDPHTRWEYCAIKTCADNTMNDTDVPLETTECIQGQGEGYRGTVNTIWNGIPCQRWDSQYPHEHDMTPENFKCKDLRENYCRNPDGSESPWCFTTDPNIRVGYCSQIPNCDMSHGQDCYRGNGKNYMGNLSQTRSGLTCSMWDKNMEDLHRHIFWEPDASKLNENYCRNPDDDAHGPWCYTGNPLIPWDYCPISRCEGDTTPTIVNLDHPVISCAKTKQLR
Chain of HGF (hepatocyte growth factor/scatter factor) (P14210 495-728, chain 2 of 2): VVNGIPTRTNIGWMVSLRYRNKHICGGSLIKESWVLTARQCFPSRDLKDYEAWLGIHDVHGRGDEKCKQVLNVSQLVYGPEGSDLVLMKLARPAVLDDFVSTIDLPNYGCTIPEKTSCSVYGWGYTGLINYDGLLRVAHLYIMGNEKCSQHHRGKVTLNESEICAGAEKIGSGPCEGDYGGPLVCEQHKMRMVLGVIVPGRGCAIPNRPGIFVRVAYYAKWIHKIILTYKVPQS

Row | Sequence | Kd (one or two 5' G, one N in printed sequence) [nM] | Kd (random pool, 550 nM with competitor tRNA) [nM]
1 | GGAGAGNUCCUAUUUAUGACAUCCCAUGCCCCCA [Tr65] | 1.4 | 
2 | GGGAGGACGAUGCGGNNNNNNNNNNNNNNNNNNNNNNNNNNNNNNCAGACGACUCGCCCGA [random 30N7 pool] |  | 1.6
